Target: BiP NBD (28–413) (Chinese hamster) (UniProt G3I8R9)
Sequence (G3I8R9 28-413): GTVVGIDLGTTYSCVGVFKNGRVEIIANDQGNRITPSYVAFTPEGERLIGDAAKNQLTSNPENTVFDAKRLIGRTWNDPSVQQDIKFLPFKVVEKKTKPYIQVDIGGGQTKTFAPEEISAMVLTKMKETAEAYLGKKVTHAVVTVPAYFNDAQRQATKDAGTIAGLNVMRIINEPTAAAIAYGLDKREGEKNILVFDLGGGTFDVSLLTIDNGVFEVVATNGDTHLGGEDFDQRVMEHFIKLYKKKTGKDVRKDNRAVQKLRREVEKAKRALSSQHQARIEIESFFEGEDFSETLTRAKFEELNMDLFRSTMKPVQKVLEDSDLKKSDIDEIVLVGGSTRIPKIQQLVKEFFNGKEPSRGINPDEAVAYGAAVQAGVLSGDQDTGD

inhibition of MABA-ADP release, concentration-dependent (Supplementary Fig. 4a, b): 26.5 µM
Substance: Full-length mouse MANF (wild-type) (from UniProt Q9CXI5 22-179) (natural protein)

From publication PMC6358605
